Here are results for one substance from patent US7345026.

For assay [1], the target named is HLA-A2.1 molecules on T2 (TAP-, HLA-A2.1+) cells (human). Nature of the assay: T2 cells, stabilisation assay, BB7.2 flow cytometry at 0, 2, 4, 6, 8 h.
Assay [2] has the same target. Nature of the assay: T2 cells, peptide binding by surface HLA-A2.1 (BB7.2) flow cytometry; ratio of concentrations reaching 20% of maximal binding.

In turn, Tyrosinase 368-376-N epitopic peptide showed a DC50 (half-life of peptide-HLA-A2.1 complexes) in assay [1] greater than 8 h. The RA (relative affinity) (ratio to HIV 1 rt.476 reference peptide) in assay [2] came to 2.2.
